The values that follow come from the supplement of paper PMC7125110.

± gives the standard error. This sample holds only a part of the variants without activity.

First the molecules themselves.
B1: glmS ribozyme (parent)
chain: AUAAAAGCGCCAGAACUACAGAAAUGUAGUUGACGAGGAGGAGGUUUAUCGAAUUUUCGGCGGAUGCCUCCAAA

Common to all, as to details: with glucosamine-6-phosphate
Variants of B1 are the subject of series [1]. As to the kind of experiment: self-cleavage kobs at 640 uM GlcN6P; higher = faster cleavage; RNA array. A digest of the protocol: (§1)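 Ribozyme variants carrying barcodes were transcribed in situ on sequenced MiSeq chips by E. coli RNA polymerase and tracked at 37 °C with a hybridised Cy3 probe. They were exposed to 40 μM to 10 mM glucosamine-6-phosphate in HEPES/KCl/Mg(OAc)2 buffer. kobs came from exponential decay fits of normalised per-tile medians, and kcat and KM from weighted Michaelis–Menten fits.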

The variants in series [2] derive from B1. As to the kind of experiment: self-cleavage kobs at 2500 uM GlcN6P; higher = faster cleavage; RNA array. A digest of the protocol:
as §1

The variants in series [3] derive from B1. The series can be described thus: self-cleavage kobs at 10000 uM GlcN6P; higher = faster cleavage; RNA array. The method in brief:
as §1

Turning to C16A G51U U69G, the “self-cleavage kobs at 640 uM GlcN6P” value with glucosamine-6-phosphate [1] stood at 9.84e-05 ± 4.1e-05 s⁻¹. Moreover, the “self-cleavage kobs at 2500 uM GlcN6P” value with glucosamine-6-phosphate [2] turned out to be 0.000199 ± 9.6e-05 s⁻¹.
For U30G U31A U65A, in that order: 0.000791 ± 0.00013 s⁻¹ and 0.000896 ± 0.00022 s⁻¹.
With A14C U56G C68A, the “self-cleavage kobs at 640 uM GlcN6P” value in the series with glucosamine-6-phosphate [1] is 9.34e-05 ± 3.4e-05 s⁻¹. Further, the “self-cleavage kobs at 2500 uM GlcN6P” value in the series with glucosamine-6-phosphate [2] came to 8.68e-05 ± 2.2e-05 s⁻¹.
In the case of U45G G66C, the “self-cleavage kobs at 640 uM GlcN6P” value in the series with glucosamine-6-phosphate [1] was 0.000414 ± 0.00017 s⁻¹. In the series with glucosamine-6-phosphate [2], the “self-cleavage kobs at 2500 uM GlcN6P” value was 0.000927 ± 0.00042 s⁻¹. Also, the “self-cleavage kobs at 10000 uM GlcN6P” value with glucosamine-6-phosphate [3] came to 0.00369 ± 0.00067 s⁻¹.
As to U30G A39U U65C, the “self-cleavage kobs at 640 uM GlcN6P” value with glucosamine-6-phosphate [1] was 0.000103 ± 3.8e-05 s⁻¹. For the same variant, in the series with glucosamine-6-phosphate [3], the “self-cleavage kobs at 10000 uM GlcN6P” value is 0.000419 ± 6.3e-05 s⁻¹.
With A14C U69C C71U, the “self-cleavage kobs at 640 uM GlcN6P” value with glucosamine-6-phosphate [1] turned out to be 4.76e-05 ± 8.5e-06 s⁻¹. Besides, the “self-cleavage kobs at 2500 uM GlcN6P” value with glucosamine-6-phosphate [2] is 0.000131 ± 1.4e-05 s⁻¹.
On to A6U C61G C67A, for which the “self-cleavage kobs at 640 uM GlcN6P” value in the series with glucosamine-6-phosphate [1] is 0.000106 ± 3.9e-05 s⁻¹. For the same variant, in the series with glucosamine-6-phosphate [2], the “self-cleavage kobs at 2500 uM GlcN6P” value amounted to 0.00149 ± 0.00065 s⁻¹.
As to A23C U69A, the “self-cleavage kobs at 640 uM GlcN6P” value with glucosamine-6-phosphate [1] turned out to be 0.000292 ± 0.0001 s⁻¹. In the series with glucosamine-6-phosphate [2], the “self-cleavage kobs at 2500 uM GlcN6P” value stood at 0.000135 ± 2.9e-05 s⁻¹. Also, the “self-cleavage kobs at 10000 uM GlcN6P” value in the series with glucosamine-6-phosphate [3] came to 9.83e-05 ± 4.3e-05 s⁻¹.
A14G U54C C68G: in the series with glucosamine-6-phosphate [1], the “self-cleavage kobs at 640 uM GlcN6P” value was 0.000112 ± 3e-05 s⁻¹. Besides, the “self-cleavage kobs at 2500 uM GlcN6P” value with glucosamine-6-phosphate [2] is 7.7e-05 ± 1.8e-05 s⁻¹.
As to A42G A64G C71G, the “self-cleavage kobs at 640 uM GlcN6P” value with glucosamine-6-phosphate [1] is 0.000615 ± 0.00014 s⁻¹. Moreover, in the series with glucosamine-6-phosphate [2], the “self-cleavage kobs at 2500 uM GlcN6P” value is 0.00107 ± 0.0003 s⁻¹. Besides, the “self-cleavage kobs at 10000 uM GlcN6P” value with glucosamine-6-phosphate [3] is 0.000757 ± 0.00025 s⁻¹.
G35U G41A A64G: the “self-cleavage kobs at 640 uM GlcN6P” value in the series with glucosamine-6-phosphate [1] is under 1e-05 s⁻¹. Moreover, in the series with glucosamine-6-phosphate [2], the “self-cleavage kobs at 2500 uM GlcN6P” value was under 1e-05 s⁻¹.
Turning to A12U A15G U47G, the “self-cleavage kobs at 640 uM GlcN6P” value in the series with glucosamine-6-phosphate [1] was 0.00207 ± 0.00042 s⁻¹.
In the case of G40A U45A C70U, in the series with glucosamine-6-phosphate [1], the “self-cleavage kobs at 640 uM GlcN6P” value amounted to 4.7e-05 ± 2.2e-05 s⁻¹. Besides, the “self-cleavage kobs at 2500 uM GlcN6P” value with glucosamine-6-phosphate [2] worked out at 7.49e-05 ± 2.1e-05 s⁻¹.
For the variant A15U G40C A52U, in the series with glucosamine-6-phosphate [1], the “self-cleavage kobs at 640 uM GlcN6P” value was under 1e-05 s⁻¹.
Still for that read-out and setting: with U46A U49A U56C A64G the figure was under 1e-05 s⁻¹.
As to G29U A36C G44U, in the series with glucosamine-6-phosphate [1], the “self-cleavage kobs at 640 uM GlcN6P” value is under 1e-05 s⁻¹. In addition, the “self-cleavage kobs at 10000 uM GlcN6P” value in the series with glucosamine-6-phosphate [3] is under 1e-05 s⁻¹.
G9A U45C A53U G60C: the “self-cleavage kobs at 640 uM GlcN6P” value with glucosamine-6-phosphate [1] was under 1e-05 s⁻¹.
As for A15U G35U A39C, in the series with glucosamine-6-phosphate [1], the “self-cleavage kobs at 640 uM GlcN6P” value was under 1e-05 s⁻¹. Besides, in the series with glucosamine-6-phosphate [2], the “self-cleavage kobs at 2500 uM GlcN6P” value is under 1e-05 s⁻¹.
In the case of A14G G29U U30G A33C C61G G66U, the “self-cleavage kobs at 640 uM GlcN6P” value with glucosamine-6-phosphate [1] was under 1e-05 s⁻¹. The “self-cleavage kobs at 2500 uM GlcN6P” value with glucosamine-6-phosphate [2] was under 1e-05 s⁻¹.
Take A18C U56C U65G: the “self-cleavage kobs at 640 uM GlcN6P” value with glucosamine-6-phosphate [1] worked out at 5.82e-05 ± 2.6e-05 s⁻¹. Moreover, in the series with glucosamine-6-phosphate [2], the “self-cleavage kobs at 2500 uM GlcN6P” value stood at 0.000131 ± 6.1e-05 s⁻¹.
C11U G29U U54A: the “self-cleavage kobs at 640 uM GlcN6P” value in the series with glucosamine-6-phosphate [1] came out at 0.000113 ± 2.1e-05 s⁻¹. Besides, the “self-cleavage kobs at 2500 uM GlcN6P” value with glucosamine-6-phosphate [2] is 0.000171 ± 4.4e-05 s⁻¹. Besides, the “self-cleavage kobs at 10000 uM GlcN6P” value in the series with glucosamine-6-phosphate [3] stood at 0.000577 ± 0.00014 s⁻¹.
Regarding C11A G63A, the “self-cleavage kobs at 640 uM GlcN6P” value in the series with glucosamine-6-phosphate [1] is under 1e-05 s⁻¹. Further, in the series with glucosamine-6-phosphate [2], the “self-cleavage kobs at 2500 uM GlcN6P” value was under 1e-05 s⁻¹. In addition, the “self-cleavage kobs at 10000 uM GlcN6P” value with glucosamine-6-phosphate [3] was under 1e-05 s⁻¹.
Turning to C16U G60U C68A, the “self-cleavage kobs at 640 uM GlcN6P” value with glucosamine-6-phosphate [1] was under 1e-05 s⁻¹.
For C8A A15U A48C, the “self-cleavage kobs at 640 uM GlcN6P” value in the series with glucosamine-6-phosphate [1] is under 1e-05 s⁻¹.
For the variant G44A U47G, the “self-cleavage kobs at 640 uM GlcN6P” value with glucosamine-6-phosphate [1] was 5.51e-05 ± 2.3e-05 s⁻¹. For the same variant, the “self-cleavage kobs at 2500 uM GlcN6P” value with glucosamine-6-phosphate [2] is 0.00011 ± 3.2e-05 s⁻¹. Further, the “self-cleavage kobs at 10000 uM GlcN6P” value in the series with glucosamine-6-phosphate [3] was 0.000111 ± 2.2e-05 s⁻¹.
For U47G U57G C61G C67U, the “self-cleavage kobs at 640 uM GlcN6P” value in the series with glucosamine-6-phosphate [1] is 0.000132 ± 5.3e-05 s⁻¹. In the series with glucosamine-6-phosphate [2], the “self-cleavage kobs at 2500 uM GlcN6P” value was 0.000254 ± 6.6e-05 s⁻¹.
